Measured values taken from PMC12288907 (JCI Insight, 2025).

How the values were obtained:
[1] = target: recombinant soluble trimeric H3 HA of A/Hong Kong/1/1968 H3N2 (HK68 H3) (Influenza A virus A/Hong Kong/1/1968 …, UniProt Q91MA7); assay: ELISA; settings: both partners purified
[2] = target: recombinant soluble trimeric H3 HA of A/Hong Kong/1/1968 H3N2 (Influenza A virus A/Hong Kong/1/1968 …, UniProt Q91MA7); assay: ELISA; settings: both partners purified
Chain of recombinant soluble trimeric H3 HA of A/Hong Kong/1/1968 H3N2 (Q91MA7 17-530): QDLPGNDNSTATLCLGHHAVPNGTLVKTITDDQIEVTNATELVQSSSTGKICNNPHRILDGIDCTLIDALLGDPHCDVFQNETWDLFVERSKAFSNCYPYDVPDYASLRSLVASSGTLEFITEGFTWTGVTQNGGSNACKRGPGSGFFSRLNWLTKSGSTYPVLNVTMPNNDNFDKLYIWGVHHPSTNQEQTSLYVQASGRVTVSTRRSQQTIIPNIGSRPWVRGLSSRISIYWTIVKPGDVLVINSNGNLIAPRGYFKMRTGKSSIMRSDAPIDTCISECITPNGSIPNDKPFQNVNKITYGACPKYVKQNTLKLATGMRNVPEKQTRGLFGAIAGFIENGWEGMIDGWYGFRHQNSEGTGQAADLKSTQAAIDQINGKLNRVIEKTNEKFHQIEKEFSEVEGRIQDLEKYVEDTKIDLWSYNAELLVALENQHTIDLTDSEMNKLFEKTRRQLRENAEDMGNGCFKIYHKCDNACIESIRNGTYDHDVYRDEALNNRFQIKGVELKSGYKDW

Chain of recombinant soluble trimeric H3 HA of A/Hong Kong/1/1968 H3N2 (HK68 H3) (Q91MA7 17-530): as above

Row | Binder | binding result [1] | binding result [2]
1 | recombinant H7-235 IgG1 (rH7-235 IgG1) (antibody, V domains shown, IgG1; also called rH7-235 mAb; mAb H7-235; copies: 2 + 2) VH: QVQLVESGGGVVQPGESLRLSCAASGFAFRTYGMHWVRQAPGKGLEWVGVIWYDGSNKYYGDSVKGRFTISRDNSQNTLYLQMNSLRAEDTAVYYCARNGERWRVEDYYYGMDVWGQGTLVTVSS VL: EIVMTQSPLSLPVTPGEPASISCRSSQSLLHSNAHNYLDWYLQKPGQSPQLLIYLGSNRASGVPDRFSGSGSGTDFTLKISRVEAEDVGIYYCMQALQTPITFGQGTRLEIK | no binding | 
2 | rH7-235rev IgG1 (germline revertant form of rH7-235 IgG) (antibody, V domains shown) VH: QVQLVESGGGVVQPGRSLRLSCAASGFTFSSYGMHWVRQAPGKGLEWVAVIWYDGSNKYYADSVKGRFTISRDNSKNTLYLQMNSLRAEDTAVYYCARNGERWRVEDYYYGMDVWGQGTLVTVSS VL: not shown |  | no binding (tested: >10,000 ng/mL)
3 | rH7-235 IgG1 (recombinant human monoclonal antibody H7-235) (antibody, V domains shown, also called mAb H7-235; source: Expi293F, transient transfection, purified (MabSelect Sure)) VH: QVQLVESGGGVVQPGESLRLSCAASGFAFRTYGMHWVRQAPGKGLEWVGVIWYDGSNKYYGDSVKGRFTISRDNSQNTLYLQMNSLRAEDTAVYYCARNGERWRVEDYYYGMDVWGQGTLVTVSS VL: EIVMTQSPLSLPVTPGEPASISCRSSQSLLHSNAHNYLDWYLQKPGQSPQLLIYLGSNRASGVPDRFSGSGSGTDFTLKISRVEAEDVGIYYCMQALQTPITFGQGTRLEIK |  | no binding (tested: >10,000 ng/mL)
